Here are results for one molecule from patent publication US20240409629A1.

This experiment deals with human CLDN18.1 (human) (UniProt P56856). As to the kind of experiment: FACS, U2OS-CLDN18.1 cells, antibody at 200 nM. (In general: Flow cytometry measures light scatter and fluorescence of single cells or particles in a stream.)

B1: IgG1 isotype control antibody (antibody, V domains shown)
VH: EVQLEQSGAELMKPGASVKISCKATGYTFTTYWIEWIKQRPGHSLEWIGEILPGSDSTYYNEKVKGKVTFTADASSNTAYMQLSSLTSEDSAVYYCARGDGFYVYWGQGTTLTVSS
VL: DIELTQSPATLSVTPGDSVSLSCRASQSISNNLHWYQQKSHESPRLLIKYTSQSMSGIPSRFSGSGSGTDFTLSINSVETEDFGVYFCQQSGSWPRTFGGGTKLDIKR
B1 yielded an MFI of 6040.
